According to patent US20210301005A1:
pIC50: −log10 of the molar value.

Experiments:
[1] = target: human TGFβ1, mature receptor-binding domain (human) (UniProt P01137)
[2] = target: human TGFβ2, mature receptor-binding domain (human)
[3] = target: human TGFβ3, mature dimeric form (human) (UniProt P10600)
[4] = target: human TGFβ1, mature receptor-binding domain (human) (UniProt P01137); remark: listed apart in the source
[5] = target: human TGFβ2, mature receptor-binding domain (human); remark: listed apart in the source
[6] = target: human TGFβ3, mature dimeric form (human) (UniProt P10600); remark: listed apart in the source

Sequence of Fc-LAP1 (P01137 30-278 limits assumed): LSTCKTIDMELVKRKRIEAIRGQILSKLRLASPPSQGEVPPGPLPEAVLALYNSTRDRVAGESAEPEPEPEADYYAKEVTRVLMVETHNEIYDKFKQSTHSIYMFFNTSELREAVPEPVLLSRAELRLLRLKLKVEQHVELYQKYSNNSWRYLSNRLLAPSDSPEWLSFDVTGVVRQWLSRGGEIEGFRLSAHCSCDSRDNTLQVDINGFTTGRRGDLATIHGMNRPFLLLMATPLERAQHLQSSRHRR
Sequence of human TGFβ1, mature receptor-binding domain (human) (P01137 279-390 limits assumed): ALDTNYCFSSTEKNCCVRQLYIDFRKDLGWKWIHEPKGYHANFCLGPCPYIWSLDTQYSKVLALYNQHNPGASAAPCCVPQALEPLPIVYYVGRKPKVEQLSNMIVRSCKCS
Sequence of human TGFβ3, mature dimeric form (human) (P10600 301-412): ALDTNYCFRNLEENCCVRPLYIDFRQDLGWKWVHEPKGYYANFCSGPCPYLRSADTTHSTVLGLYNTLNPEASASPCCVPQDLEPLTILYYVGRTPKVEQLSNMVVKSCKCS
Sequence of human TGFβ2, mature receptor-binding domain (human) (P09858 303-414 limits assumed): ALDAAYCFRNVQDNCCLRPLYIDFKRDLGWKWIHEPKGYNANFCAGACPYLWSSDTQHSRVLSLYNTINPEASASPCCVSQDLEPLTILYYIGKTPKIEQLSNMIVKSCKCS

- pIC50 [1]: 7.02
- pIC50 [2]: 7.19
- pIC50 [3]: 7.37
- IC50 (read off the curve) [4]: 0.1 nM
- IC50 (read off the curve) [5]: 0.07 nM
- IC50 (read off the curve) [6]: 0.04 nM
Substance: Fc-LAP1 (from UniProt P01137 30-278) (Fc fusion)
